Source: patent publication US20130288275

B1: CBP (CREB binding protein) from Biomol (protein)
chain: RKENKFSAKRLQTTRLGNHLEDRVNKFLRRQNHPEAGEVFVRVVASSDKTVEVKPGMKSRFVDSGEMSESFPYRTKALFAFEEIDGVDVCFFGMHVQEYGSDCPPPNTRRVYISYLDSIHFFRPRCLRTAVYHEILIGYLEYVKKLGYVTGHIWACPPSEGDDYIFHCHPPDQKIPKPKRLQEWYKKMLDKAFAERIIHDYKDIFKQATEDRLTSAKELPYFEGDFWPNVLEESIKELEQEEEERKKEESTAASETTEGSQGDSKNAKKKNNKKTNKNKSSISRANKKKPSMPNVSNDLSQKLYATMEKHKEVFFVIHLHAGPVINTLPPIVDPDPLLSCDLMDGRDAFLTLARDKHWEFSSLRRSKWSTLCMLVELHTQGQDRFVYTCNEC
B2: PCAF (protein)
chain: GVIEFHVVGNSLNQKPNKKILMWLVGLQNVFSHQLPRMPKEYITRLVFDPKHKTLALIKDGRVIGGICFRMFPSQGFTEIVFCAVTSNEQVKGYGTHLMNHLKEYHIKHDILNFLTYADEYAIGYFKKQGFSKEIKIPKTKYVGYIKDYEGATLMGCELNPRIPYTE

Key:
[1] = biological target: Purified SUMO-2 (Biomol UW9200)
[2] = biological target: Purified SUMO-1 (Biomol UW9190), not acetylated
[3] = biological target: Purified SUMO-3 (Biomol UW9210)
Sequence of Purified SUMO-3 (Biomol UW9210) (P55854 whole entry): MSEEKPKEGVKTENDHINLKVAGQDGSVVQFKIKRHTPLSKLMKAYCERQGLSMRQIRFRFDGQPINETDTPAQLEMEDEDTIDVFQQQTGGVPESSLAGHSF

| Protein | in vitro acetylation with 14C-acetyl CoA, autoradiography [1] | in vitro acetylation with 14C-acetyl CoA, autoradiography [2] | in vitro acetylation with 14C-acetyl CoA, autoradiography [3] |
| --- | --- | --- | --- |
| B1 | SUMO-2 and SUMO-3 were also robustly acetylated by CBP (FIG. 2D, lanes 6-7) | purified SUMO-1 was efficiently acetylated by CBP (lane 3) | SUMO-2 and SUMO-3 were also robustly acetylated by CBP (FIG. 2D, lanes 6-7) |
| B2 | – | but not by PCAF (not shown) | – |
